PMC6477676, “Staufen2-mediated RNA recognition and localization requires combinatorial action of multiple domains”

Key:
mStau2 dsRBD1-2 [1] = target: T1, mStau2 dsRBD1-2 (Mus musculus, UniProt Q8CJ67 8-181); assay: EMSA; Kd micromolar; SPR: HBS-EP (10 mM HEPES pH 7.4, 150 mM NaCl, 3 mM EDTA, 0.005% P20); EMSA: 5 nM RNA, protein buffer (40 mM Bis-Tris pH 7, 150 mM NaCl, 2 mM DTT presumed), 4% glycerol, 30 ug/mL yeast tRNA, RT; NMR: 150 mM NaCl, 20 mM Na phosphate pH 7.0, 5 mM DTT, 298 K; details: protein: recombinant; tags: HisSUMO removed; label: 5' 32P; hairpin, 3' ss extension
T1 sequence: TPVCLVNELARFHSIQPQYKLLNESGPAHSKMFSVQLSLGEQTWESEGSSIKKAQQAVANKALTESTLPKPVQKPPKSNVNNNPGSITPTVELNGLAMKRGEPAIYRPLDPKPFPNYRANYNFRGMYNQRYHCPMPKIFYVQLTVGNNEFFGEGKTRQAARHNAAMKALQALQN

mStau2 dsRBD3-4 [2] = target: T2, mStau2 dsRBD3-4 (Mus musculus, UniProt Q8CJ67 207-375); assay: as above; details: protein: recombinant; tags: HisSUMO removed; label: 5' 32P; hairpin, 3' ss extension
T2 sequence: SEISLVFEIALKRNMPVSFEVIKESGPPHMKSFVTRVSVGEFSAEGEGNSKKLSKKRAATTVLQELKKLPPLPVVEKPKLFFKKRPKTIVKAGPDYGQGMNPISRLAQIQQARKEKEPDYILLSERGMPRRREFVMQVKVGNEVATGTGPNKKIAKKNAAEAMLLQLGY

mStau2 full-length = target: T3, mStau2 full-length (Mus musculus, UniProt Q8CJ67 1-570); assay: EMSA; Kd low micromolar; SPR: HBS-EP (10 mM HEPES pH 7.4, 150 mM NaCl, 3 mM EDTA, 0.005% P20); EMSA: 5 nM RNA, protein buffer (40 mM Bis-Tris pH 7, 150 mM NaCl, 2 mM DTT presumed), 4% glycerol, 30 ug/mL yeast tRNA, RT; NMR: 150 mM NaCl, 20 mM Na phosphate pH 7.0, 5 mM DTT, 298 K; details: protein: recombinant; tags: HisSUMO; label: 5' 32P; hairpin
T3 sequence: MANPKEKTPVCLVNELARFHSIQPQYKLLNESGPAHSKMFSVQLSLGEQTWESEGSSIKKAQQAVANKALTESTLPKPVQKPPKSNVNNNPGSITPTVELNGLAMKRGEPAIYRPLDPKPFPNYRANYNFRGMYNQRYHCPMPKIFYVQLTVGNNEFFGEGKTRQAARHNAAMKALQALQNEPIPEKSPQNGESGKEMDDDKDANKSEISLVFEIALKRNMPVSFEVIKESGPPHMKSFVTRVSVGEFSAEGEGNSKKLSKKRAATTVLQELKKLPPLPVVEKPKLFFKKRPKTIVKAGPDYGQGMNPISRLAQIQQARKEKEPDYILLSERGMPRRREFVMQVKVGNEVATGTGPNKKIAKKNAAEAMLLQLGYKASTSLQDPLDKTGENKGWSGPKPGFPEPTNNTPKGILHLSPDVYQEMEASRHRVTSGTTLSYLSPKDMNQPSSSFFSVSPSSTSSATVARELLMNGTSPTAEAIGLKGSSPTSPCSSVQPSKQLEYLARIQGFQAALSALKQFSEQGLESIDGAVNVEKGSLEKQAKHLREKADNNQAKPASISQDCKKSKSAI

mStau2 dsRBD3 = target: T4, mStau2 dsRBD3 (Mus musculus, UniProt Q8CJ67 207-274); assay: EMSA; up to 5 uM; SPR: HBS-EP (10 mM HEPES pH 7.4, 150 mM NaCl, 3 mM EDTA, 0.005% P20); EMSA: 5 nM RNA, protein buffer (40 mM Bis-Tris pH 7, 150 mM NaCl, 2 mM DTT presumed), 4% glycerol, 30 ug/mL yeast tRNA, RT; NMR: 150 mM NaCl, 20 mM Na phosphate pH 7.0, 5 mM DTT, 298 K; details: protein: recombinant; label: 5' 32P; hairpin
T4 sequence: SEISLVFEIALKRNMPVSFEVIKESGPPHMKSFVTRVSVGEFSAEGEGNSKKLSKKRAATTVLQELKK

mStau2 dsRBD4 = target: T5, mStau2 dsRBD4 (Mus musculus, UniProt Q8CJ67 307-375); assay: EMSA; binds at micromolar concentrations; SPR: HBS-EP (10 mM HEPES pH 7.4, 150 mM NaCl, 3 mM EDTA, 0.005% P20); EMSA: 5 nM RNA, protein buffer (40 mM Bis-Tris pH 7, 150 mM NaCl, 2 mM DTT presumed), 4% glycerol, 30 ug/mL yeast tRNA, RT; NMR: 150 mM NaCl, 20 mM Na phosphate pH 7.0, 5 mM DTT, 298 K; details: protein: recombinant; label: 5' 32P; hairpin
T5 sequence: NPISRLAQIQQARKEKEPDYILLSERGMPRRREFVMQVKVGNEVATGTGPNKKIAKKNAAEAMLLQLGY

mStau2 dsRBD1-2 [3] = target: T1, mStau2 dsRBD1-2; assay: EMSA; comparable with dsRBD3-4; SPR: HBS-EP (10 mM HEPES pH 7.4, 150 mM NaCl, 3 mM EDTA, 0.005% P20); EMSA: 5 nM RNA, protein buffer (40 mM Bis-Tris pH 7, 150 mM NaCl, 2 mM DTT presumed), 4% glycerol, 30 ug/mL yeast tRNA, RT; NMR: 150 mM NaCl, 20 mM Na phosphate pH 7.0, 5 mM DTT, 298 K; details: protein: recombinant; tags: HisSUMO removed; label: 5' 32P; hairpin
mStau2 dsRBD3-4 [4] = target: T2, mStau2 dsRBD3-4; assay: EMSA; SPR: HBS-EP (10 mM HEPES pH 7.4, 150 mM NaCl, 3 mM EDTA, 0.005% P20); EMSA: 5 nM RNA, protein buffer (40 mM Bis-Tris pH 7, 150 mM NaCl, 2 mM DTT presumed), 4% glycerol, 30 ug/mL yeast tRNA, RT; NMR: 150 mM NaCl, 20 mM Na phosphate pH 7.0, 5 mM DTT, 298 K; details: protein: recombinant; tags: HisSUMO removed; label: 5' 32P; hairpin
mStau2 dsRBD1-2 [5] = target: T1, mStau2 dsRBD1-2; assay: EMSA; almost abolished; no complex observed; SPR: HBS-EP (10 mM HEPES pH 7.4, 150 mM NaCl, 3 mM EDTA, 0.005% P20); EMSA: 5 nM RNA, protein buffer (40 mM Bis-Tris pH 7, 150 mM NaCl, 2 mM DTT presumed), 4% glycerol, 30 ug/mL yeast tRNA, RT; NMR: 150 mM NaCl, 20 mM Na phosphate pH 7.0, 5 mM DTT, 298 K; details: protein: recombinant; tags: HisSUMO removed; label: 5' 32P; hairpin, 3' ss extension
mStau2 dsRBD3-4 [6] = target: T2, mStau2 dsRBD3-4; assay: as above; details: protein: recombinant; tags: HisSUMO removed; label: 5' 32P; hairpin, 3' ss extension

GGACAUGCACAUGAUUUGUAUGUGUAUGUAUAUA (structured_RNA) [12 bp SRS2 stem-loop (11bpSRS2+5)]
binding result (mStau2 dsRBD1-2 [1]): binds
binding result (mStau2 dsRBD3-4 [2]): binds

GGGUUCCGUCAAGCCACUGGGUCUUGAUGGAGC (structured_RNA) [Rgs4 SRS1]
binding result (mStau2 full-length): binds

GGACAUGCAAUUUGUGUAUGUAUAUA (structured_RNA) [8 bp SRS2 stem-loop (7bpSRS2+5)]
binding result (mStau2 dsRBD1-2 [1]): binds
binding result (mStau2 dsRBD3-4 [2]): binds

GGACAUGCACAAUUUGUGUGUAUGUAUAUA (structured_RNA) [10 bp SRS2 stem-loop (9bpSRS2+5)]
binding result (mStau2 dsRBD1-2 [1]): binds
binding result (mStau2 dsRBD3-4 [2]): binds

GGGACAUGCACAUGCAAUUUGUGUAUGUGUAUGU (structured_RNA) [Rgs4 SRS2 (EMSA transcript)]
binding result (mStau2 dsRBD3): no binding
binding result (mStau2 dsRBD4): binds
binding result (mStau2 dsRBD1-2 [3]): binds
binding result (mStau2 dsRBD3-4 [4]): binds
binding result (mStau2 full-length): binds

GGACAUGCAUUUGGUAUGUAUAUA (structured_RNA) [7 bp SRS2 stem-loop (6bpSRS2+5)]
binding result (mStau2 dsRBD1-2 [5]): no binding
binding result (mStau2 dsRBD3-4 [6]): no binding
